Results from PMC9913320, “Development of ^99mTc-Hynic-Adh-1 Molecular Probe Specifically Targeting N-Cadherin and Its Preliminary Experimental Study in Monitoring Drug Resistance of Non-Small-Cell Lung Cancer” (Cancers, 2023).

Assays:
[1] = Partition coefficient (Log D), 1-octanol/PBS; type: physicochemical; details: 1-octanol and PBS (pH 7.4), n = 3
Experimental: Partition coefficients (Log D) of ^99mTc-HYNIC-ADH-1 were measured through the assessment of the distribution of radioactivity in 1-octanol and phosphate buffer in a 2 mL centrifuge tube. A 10 µL ^99mTc-HYNIC-ADH-1 solution was added to a vial containing 1 mL each of 1-octanol and PBS (pH 7.4). After vortexing for 10 min, the vial was centrifuged for 10 min to ensure complete separation of the layers. Then, 10 µL of each layer was pipetted into separate test tubes, and the counts were measured using a γ counter. Partition coefficients are shown as the log counts in 1-octanol vs. PBS layers (n = 3).

[2] = Pharmacokinetic studies (blood radioactivity, PK solver); type: in vivo; details: C57/BL6 mice, i.v.
Experimental: For the pharmacokinetic studies, four C57/BL6 mice weighing 18–20 g were administrated with ^99mTc-HYNIC-ADH1 (0.1 mL, 0.74 MBq) by i.v. injection into the tail vein. An array of blood samples was acquired and weighed by pinching the tail with a syringe at 2, 5, 15, 20, 30, 45, 60, 90, 120 and 240 min post-injection (p.i.). Radioactivity was calculated as the % of dose per g of tissue per body weight (%ID/g) expressed over time. […] Pharmacokinetics was assayed using PK solver 2.0.

[3] = Biodistribution in xenograft-bearing nude mice, organs; type: in vivo, BALB/c nude mice; details: mouse, iv, 0.74 MBq, i.v.; for tissue uptake at 0.5 h: 30 min; for tissue uptake at 1 h: 60 min; for tissue uptake at 2 h: 120 min; for tissue uptake at 4 h: 240 min
Experimental: (§1) All animal research was performed in accordance with the Zhejiang University Institutional Animal Care and Use Committee guidelines. PC9 and PC9GR cells (2 × 10^6 cells per mice) were injected subcutaneously into the flanks of 2- to 4-week old BALB/c nude mice (left: PC9GR, right: PC9). The cells were allowed to grow 3–5 weeks until tumors were 1 ± 0.5 cm^3 in volume. Normal C57/BL6 mice (aged 6 to 8 wks old) were obtained from the Animal Center of the First Affiliated Hospital of Zhejiang University. All animals were maintained with free access to food and water and used a standard diet, bedding and environment.
(§2) The radiotracer (0.1 mL, 0.74 MBq) was injected intravenously into normal C57/BL6 mice and xenograft models as previously described (n = 4 per group per time) via the tail vein. After different time intervals (30, 60, 120 and 240 min), the mice were sacrificed by cervical dislocation, and their blood, tumors and major organs (brain, heart, lung, liver, spleen, kidney, stomach, intestine, muscle, bone and skin) were harvested and weighed. The radioactivity of each sample was measured with a γ-counter. Values are shown as the percentage of the injected dose per gram (%ID/g), which corrected for background and decay to maintain consistency.

[4] = Biodistribution in xenograft-bearing nude mice, PC9GR tumor; type: in vivo, BALB/c nude mice; details: mouse, iv, 0.74 MBq, xenograft-bearing nude mice, i.v., read-out: Biodistribution, T(PC9GR)
Experimental: as §1, §2

PC9GR tumor = experiment: as above; type: in vivo, BALB/c nude mice; details: biodistribution, tumor-bearing mice
Experimental: as §1, §2

[5] = Biodistribution in xenograft-bearing nude mice, PC9 tumor; type: in vivo, BALB/c nude mice; details: mouse, tumor (PC9), iv, 0.74 MBq, xenograft-bearing nude mice, i.v., read-out: Biodistribution, T(PC9)
Experimental: as §1, §2

PC9 tumor = experiment: as above; type: in vivo, BALB/c nude mice; details: biodistribution, tumor-bearing mice
Experimental: as §1, §2

[6] = blood, read-out: Biodistribution, Blood
[7] = bone, read-out: Biodistribution, Bone
[8] = brain, read-out: Biodistribution, Brain
[9] = heart, read-out: Biodistribution, Heart
[10] = intestine, read-out: Biodistribution, Intestine
[11] = kidney, read-out: Biodistribution, Kidney
[12] = liver, read-out: Biodistribution, Liver
[13] = lung, read-out: Biodistribution, Lung
[14] = muscle, read-out: Biodistribution, Muscle
[15] = skin, read-out: Biodistribution, Skin
[16] = spleen, read-out: Biodistribution, Spleen
[17] = stomach, read-out: Biodistribution, Stomach

For `CC(=O)N[C@H]1CSSC[C@@H](C(=O)NCCNC(=O)c2ccc(NN)nc2)NC(=O)[C@H](C(C)C)NC(=O)[C@H](C)NC(=O)[C@H](Cc2c[nH]cn2)NC1=O` [^99mTc-HYNIC-ADH-1, metal not drawn], the logD [1] was -2.45 ± 0.1, the “AUC(0–t)” value [2] was 0.0593 µg·min/L and the “AUC(0–∞)” value [2] was 0.0595 µg·min/L. It also gave a K10 [2] of 0.0815 min⁻¹, a K12 [2] of 0.1511 min⁻¹ and a K21 [2] of 0.0794 min⁻¹. For the same compound, the V1 [2] was 68.753 L/kg, the T1/2α ([2]; two-compartment model) was 2.3925 min and the half-life ([2]; mouse, blood, iv, 0.74 MBq, two-compartment model, read-out: T1/2β) was 31 min. For the same compound, the tissue uptake at 0.5 h [3, 6] was 1.35 ± 0.18 %ID/g, the tissue uptake at 1 h [3, 6] was 0.84 ± 0.03 %ID/g and the tissue uptake at 2 h [3, 6] was 0.49 ± 0.05 %ID/g. For the same compound, the tissue uptake at 4 h [3, 6] was 0.48 ± 0.2 %ID/g, the tissue uptake at 0.5 h [3, 7] was 0.46 ± 0.03 %ID/g and the tissue uptake at 1 h [3, 7] was 0.37 ± 0.04 %ID/g. The tissue uptake at 2 h [3, 7] was 0.26 ± 0.04 %ID/g, the tissue uptake at 4 h [3, 7] was 0.21 ± 0.01 %ID/g and the tissue uptake at 0.5 h [3, 8] was 0.05 ± 0.01 %ID/g. For the same compound, the tissue uptake at 1 h [3, 8] was 0.07 ± 0.01 %ID/g, the tissue uptake at 2 h [3, 8] was 0.05 %ID/g and the tissue uptake at 4 h [3, 8] was 0.03 %ID/g. It also gave a tissue uptake at 0.5 h [3, 9] of 0.57 ± 0.03 %ID/g, a tissue uptake at 1 h [3, 9] of 0.42 ± 0.08 %ID/g and a tissue uptake at 2 h [3, 9] of 0.28 ± 0.01 %ID/g. The tissue uptake at 4 h [3, 9] was 0.23 ± 0.01 %ID/g, the tissue uptake at 0.5 h [3, 10] was 0.43 ± 0.03 %ID/g and the tissue uptake at 1 h [3, 10] was 1.38 ± 1.01 %ID/g. For the same compound, the tissue uptake at 2 h [3, 10] was 0.58 ± 0.12 %ID/g, the tissue uptake at 4 h [3, 10] was 0.88 ± 0.38 %ID/g and the tissue uptake at 0.5 h [3, 11] was 3.77 ± 1 %ID/g. It also gave a tissue uptake at 1 h [3, 11] of 2.85 ± 0.54 %ID/g, a tissue uptake at 2 h [3, 11] of 3.13 ± 0.7 %ID/g and a tissue uptake at 4 h [3, 11] of 3.13 ± 0.54 %ID/g. It also gave a tissue uptake at 0.5 h [3, 12] of 0.76 ± 0.06 %ID/g, a tissue uptake at 1 h [3, 12] of 0.66 ± 0.06 %ID/g and a tissue uptake at 2 h [3, 12] of 0.59 ± 0.01 %ID/g. For the same compound, the tissue uptake at 4 h [3, 12] was 0.55 ± 0.1 %ID/g, the tissue uptake at 0.5 h [3, 13] was 1.5 ± 0.04 %ID/g and the tissue uptake at 1 h [3, 13] was 1.2 ± 0.16 %ID/g. For the same compound, the tissue uptake at 2 h [3, 13] was 0.68 ± 0.11 %ID/g, the tissue uptake at 4 h [3, 13] was 0.56 ± 0.08 %ID/g and the tissue uptake at 0.5 h [3, 14] was 0.5 ± 0.47 %ID/g. For the same compound, the tissue uptake at 1 h [3, 14] was 0.47 ± 0.1 %ID/g, the tissue uptake at 2 h [3, 14] was 0.24 ± 0.01 %ID/g and the tissue uptake at 4 h [3, 14] was 0.25 ± 0.04 %ID/g. For the same compound, the tissue uptake at 0.5 h [3, 15] was 1.22 ± 0.05 %ID/g, the tissue uptake at 1 h [3, 15] was 1.33 ± 0.33 %ID/g and the tissue uptake at 2 h [3, 15] was 1.21 ± 0.44 %ID/g. It also gave a tissue uptake at 4 h [3, 15] of 1.73 ± 0.08 %ID/g, a tissue uptake at 0.5 h [3, 16] of 0.35 ± 0.03 %ID/g and a tissue uptake at 1 h [3, 16] of 0.27 ± 0.02 %ID/g. The tissue uptake at 2 h [3, 16] was 0.22 ± 0.02 %ID/g, the tissue uptake at 4 h [3, 16] was 0.2 ± 0.01 %ID/g and the tissue uptake at 0.5 h [3, 17] was 1.16 ± 0.18 %ID/g. It also gave a tissue uptake at 1 h [3, 17] of 0.78 ± 0.32 %ID/g, a tissue uptake at 2 h [3, 17] of 0.73 ± 0.31 %ID/g and a tissue uptake at 4 h [3, 17] of 0.69 ± 0.29 %ID/g. The tissue uptake at 2 h ([4]; tumor (PC9GR), 120 min) was 1.32 ± 0.08 %ID/g, the tissue uptake at 0.5 h ([4]; tumor, 30 min) was 1.09 ± 0.15 %ID/g and the tissue uptake at 1 h ([4]; tumor, 60 min) was 1.26 ± 0.1 %ID/g. The tissue uptake at 4 h ([4]; tumor, 240 min) was 0.75 ± 0.19 %ID/g, the “T/NT PC9GR/Kidney” value (PC9GR tumor; 30 min) was 0.42 ± 0.10 and the “T/NT PC9GR/Liver” value (PC9GR tumor; 30 min) was 1.64 ± 0.24. The “T/NT PC9GR/Muscle” value (PC9GR tumor; 30 min) was 2.41 ± 0.12, the “T/NT PC9GR/Kidney” value (PC9GR tumor; 1 h) was 0.27 ± 0.04 and the “T/NT PC9GR/Liver” value (PC9GR tumor; 1 h) was 1.58 ± 0.12. The “T/NT PC9GR/Muscle” value (PC9GR tumor; 1 h) was 2.64 ± 0.47, the “T/NT PC9GR/Kidney” value (PC9GR tumor; 2 h) was 0.49 ± 0.20 and the “T/NT PC9GR/Liver” value (PC9GR tumor; 2 h) was 2.14 ± 0.69. The “T/NT PC9GR/Muscle” value (PC9GR tumor; 2 h) was 5.19 ± 1.89, the “T/NT PC9GR/Kidney” value (PC9GR tumor; 4 h) was 0.26 ± 0.13 and the “T/NT PC9GR/Liver” value (PC9GR tumor; 4 h) was 1.36 ± 0.69. The “T/NT PC9GR/Muscle” value (PC9GR tumor; 4 h) was 3.62 ± 1.92, the tissue uptake at 0.5 h ([5]; 30 min) was 0.99 ± 0.15 %ID/g and the tissue uptake at 1 h ([5]; 60 min) was 0.91 ± 0.03 %ID/g. The tissue uptake at 2 h ([5]; 120 min) was 0.79 ± 0.06 %ID/g, the tissue uptake at 4 h ([5]; 240 min) was 0.64 ± 0.16 %ID/g and the “T/NT PC9/Kidney” value (PC9 tumor; 30 min) was 0.27 ± 0.06. For the same compound, the “T/NT PC9/Liver” value (PC9 tumor; 30 min) was 1.36 ± 0.15, the “T/NT PC9/Muscle” value (PC9 tumor; 30 min) was 1.97 ± 0.21 and the “T/NT PC9/Kidney” value (PC9 tumor; 1 h) was 0.27 ± 0.03. For the same compound, the “T/NT PC9/Liver” value (PC9 tumor; 1 h) was 1.58 ± 0.06, the “T/NT PC9/Muscle” value (PC9 tumor; 1 h) was 2.59 ± 0.34 and the “T/NT PC9/Kidney” value (PC9 tumor; 2 h) was 0.26 ± 0.06. The “T/NT PC9/Liver” value (PC9 tumor; 2 h) was 1.41 ± 0.21, the “T/NT PC9/Muscle” value (PC9 tumor; 2 h) was 3.36 ± 0.08 and the “T/NT PC9/Kidney” value (PC9 tumor; 4 h) was 0.25 ± 0.02. The “T/NT PC9/Liver” value (PC9 tumor; 4 h) was 1.01 ± 0.31 and the “T/NT PC9/Muscle” value (PC9 tumor; 4 h) was 2.78 ± 0.28.
